Patent publication US20250244325A1

Tests used:
[1] = substrate: S clamp antigen from CSL451 GMP batch TC20-02-08 (sublot VS20200615A) (SARS-CoV-2) (UniProt P0DTC2); assay: kinetics on CM5 chip: anti-mouse Ab, 30B8 captured, CSL451 Sclamp antigen in solution, 1:1 binding; MEAN ± SEM of the eight runs
[2] = substrate: S clamp antigen from CSL451 GMP batch TC20-02-08 (sublot VS20200615A) (SARS-CoV-2) (UniProt P0DTC2); assay: kinetics on CM5 chip: anti-mouse Ab, 30B8 captured, CSL451 Sclamp antigen in solution, 1:1 binding; density 20 RU, table row 3
[3] = substrate: S clamp antigen from CSL451 GMP batch TC20-02-08 (sublot VS20200615A) (SARS-CoV-2) (UniProt P0DTC2); assay: homologous 30B8 capture/detection EIA; CSL451 DP held 1 h at room temperature (control), pre-treated with 0.125% Zwittergent 3 h at 37 C, antigen titrated
[4] = substrate: S clamp antigen from CSL451 GMP batch TC20-02-08 (sublot VS20200615A) (SARS-CoV-2) (UniProt P0DTC2); assay: kinetics on CM5 chip: anti-mouse Ab, 30B8 captured, CSL451 Sclamp antigen in solution, 1:1 binding; density 20 RU, table row 4
[5] = substrate: S clamp antigen from CSL451 GMP batch TC20-02-08 (sublot VS20200615A) (SARS-CoV-2) (UniProt P0DTC2); assay: kinetics on CM5 chip: anti-mouse Ab, 30B8 captured, CSL451 Sclamp antigen in solution, 1:1 binding; density 7 RU, table row 7
[6] = substrate: S clamp antigen from CSL451 GMP batch TC20-02-08 (sublot VS20200615A) (SARS-CoV-2) (UniProt P0DTC2); assay: kinetics on CM5 chip: anti-mouse Ab, 30B8 captured, CSL451 Sclamp antigen in solution, 1:1 binding; density 40 RU, table row 1
[7] = substrate: S clamp antigen from CSL451 GMP batch TC20-02-08 (sublot VS20200615A) (SARS-CoV-2) (UniProt P0DTC2); assay: kinetics on CM5 chip: anti-mouse Ab, 30B8 captured, CSL451 Sclamp antigen in solution, 1:1 binding; density 40 RU, table row 2
[8] = substrate: S clamp antigen from CSL451 GMP batch TC20-02-08 (sublot VS20200615A) (SARS-CoV-2) (UniProt P0DTC2); assay: kinetics on CM5 chip: anti-mouse Ab, 30B8 captured, CSL451 Sclamp antigen in solution, 1:1 binding; density 13 RU, table row 5
[9] = substrate: S clamp antigen from CSL451 GMP batch TC20-02-08 (sublot VS20200615A) (SARS-CoV-2) (UniProt P0DTC2); assay: kinetics on CM5 chip: anti-mouse Ab, 30B8 captured, CSL451 Sclamp antigen in solution, 1:1 binding; density 13 RU
[10] = substrate: S clamp antigen from CSL451 GMP batch TC20-02-08 (sublot VS20200615A) (SARS-CoV-2) (UniProt P0DTC2); assay: kinetics on CM5 chip: anti-mouse Ab, 30B8 captured, CSL451 Sclamp antigen in solution, 1:1 binding; density 7 RU, table row 8
[11] = substrate: S clamp antigen from CSL451 GMP batch TC20-02-08 (sublot VS20200615A) (SARS-CoV-2) (UniProt P0DTC2); assay: binding kinetics from sensorgrams (FIG. 6); instrument and format not given

B1: antibody 30B8 (antibody, V domains shown)
VH: EVQLQQSGAELVKPGASVKLSCTASGFNIKDTYIHWVKQRPEQGLEWIGRIDPANGNTKYDPKFQGKATITADTSSNTAYLQLSSLTSEDTAVCYCAGSLYDYDGAPFAYWGQGTLVTVSA
VL: SIVMTQTPKFLLVSAGDRVTITCKASQSVTNDVTWYQQKPGQSPKLLIYYASNRYTGVPDRFTGSGYGTDFTFTISTVQAEDLAVYFCQQDYSSPWTFGGGTKLEIK
Binder B1 has a Kd [1] of 15.1 pM, a Kd [2] of 15.5 pM and a koff [2] of 3.66e-05 s⁻¹. It also gave a kon [2] of 2.37e+06 M⁻¹ s⁻¹, an EC50 (read off the curve) [3] of 0.7 µg/mL and a Kd [4] of 15.2 pM. For the same binder, the koff [4] was 3.68e-05 s⁻¹, the kon [4] was 2.42e+06 M⁻¹ s⁻¹ and the Kd [5] was 13 pM. For the same binder, the koff [5] was 3.11e-05 s⁻¹, the kon [5] was 2.39e+06 M⁻¹ s⁻¹ and the Kd [6] was 15.9 pM. For the same binder, the koff [6] was 3.76e-05 s⁻¹, the kon [6] was 2.36e+06 M⁻¹ s⁻¹ and the Kd [7] was 13.8 pM. It also gave a koff [7] of 3.25e-05 s⁻¹, a kon [7] of 2.35e+06 M⁻¹ s⁻¹ and a Kd [8] of 17.1 pM. For the same binder, the koff [8] was 3.96e-05 s⁻¹, the kon [8] was 2.31e+06 M⁻¹ s⁻¹ and the Kd [9] was 17.1 pM. The koff [9] was 3.98e-05 s⁻¹, the kon [9] was 2.33e+06 M⁻¹ s⁻¹ and the Kd [10] was 13.1 pM. For the same binder, the koff [10] was 3.06e-05 s⁻¹, the kon [10] was 2.33e+06 M⁻¹ s⁻¹ and the Kd [11] was 15 pM.
